This note sets out measurements from patent publication US20240392262A1, “TRANSPOSASE AND USES THEREOF” (Poseida Therapeutics, Inc., published 2024).

Details in all cases: tags: 3xFlag, SV40 NLS
The target of one series is T1, PAH2 Left TAL-PBx (synthetic construct).
T1 chain: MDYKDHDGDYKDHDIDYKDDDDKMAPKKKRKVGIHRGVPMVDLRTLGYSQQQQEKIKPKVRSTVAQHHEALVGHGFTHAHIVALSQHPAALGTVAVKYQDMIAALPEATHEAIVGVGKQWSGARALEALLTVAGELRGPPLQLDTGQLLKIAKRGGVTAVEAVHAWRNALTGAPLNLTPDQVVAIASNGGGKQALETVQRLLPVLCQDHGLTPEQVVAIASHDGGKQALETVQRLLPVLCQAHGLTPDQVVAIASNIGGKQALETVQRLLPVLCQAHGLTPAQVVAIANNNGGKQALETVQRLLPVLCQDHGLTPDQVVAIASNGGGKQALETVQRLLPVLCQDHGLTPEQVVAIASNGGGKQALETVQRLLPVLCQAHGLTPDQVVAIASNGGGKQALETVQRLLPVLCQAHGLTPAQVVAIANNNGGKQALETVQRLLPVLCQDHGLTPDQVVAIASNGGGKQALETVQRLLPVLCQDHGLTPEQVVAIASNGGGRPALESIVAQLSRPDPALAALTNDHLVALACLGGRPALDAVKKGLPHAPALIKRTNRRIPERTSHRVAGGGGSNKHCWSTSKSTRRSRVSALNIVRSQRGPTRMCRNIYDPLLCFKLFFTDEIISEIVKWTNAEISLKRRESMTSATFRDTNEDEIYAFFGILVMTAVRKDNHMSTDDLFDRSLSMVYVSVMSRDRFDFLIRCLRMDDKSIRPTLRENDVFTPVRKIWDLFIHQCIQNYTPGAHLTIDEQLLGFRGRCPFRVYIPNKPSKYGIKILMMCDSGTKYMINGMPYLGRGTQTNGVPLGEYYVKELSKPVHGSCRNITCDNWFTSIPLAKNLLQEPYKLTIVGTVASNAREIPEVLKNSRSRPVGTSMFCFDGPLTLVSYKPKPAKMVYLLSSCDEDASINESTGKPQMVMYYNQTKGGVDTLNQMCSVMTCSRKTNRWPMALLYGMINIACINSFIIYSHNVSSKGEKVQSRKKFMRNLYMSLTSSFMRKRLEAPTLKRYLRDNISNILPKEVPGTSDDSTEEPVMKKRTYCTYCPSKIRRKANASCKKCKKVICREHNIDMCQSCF
Put plainly: cell_activity; left only.

The next series addresses T2, PAH2 Right TAL-PBx (synthetic construct).
T2 chain: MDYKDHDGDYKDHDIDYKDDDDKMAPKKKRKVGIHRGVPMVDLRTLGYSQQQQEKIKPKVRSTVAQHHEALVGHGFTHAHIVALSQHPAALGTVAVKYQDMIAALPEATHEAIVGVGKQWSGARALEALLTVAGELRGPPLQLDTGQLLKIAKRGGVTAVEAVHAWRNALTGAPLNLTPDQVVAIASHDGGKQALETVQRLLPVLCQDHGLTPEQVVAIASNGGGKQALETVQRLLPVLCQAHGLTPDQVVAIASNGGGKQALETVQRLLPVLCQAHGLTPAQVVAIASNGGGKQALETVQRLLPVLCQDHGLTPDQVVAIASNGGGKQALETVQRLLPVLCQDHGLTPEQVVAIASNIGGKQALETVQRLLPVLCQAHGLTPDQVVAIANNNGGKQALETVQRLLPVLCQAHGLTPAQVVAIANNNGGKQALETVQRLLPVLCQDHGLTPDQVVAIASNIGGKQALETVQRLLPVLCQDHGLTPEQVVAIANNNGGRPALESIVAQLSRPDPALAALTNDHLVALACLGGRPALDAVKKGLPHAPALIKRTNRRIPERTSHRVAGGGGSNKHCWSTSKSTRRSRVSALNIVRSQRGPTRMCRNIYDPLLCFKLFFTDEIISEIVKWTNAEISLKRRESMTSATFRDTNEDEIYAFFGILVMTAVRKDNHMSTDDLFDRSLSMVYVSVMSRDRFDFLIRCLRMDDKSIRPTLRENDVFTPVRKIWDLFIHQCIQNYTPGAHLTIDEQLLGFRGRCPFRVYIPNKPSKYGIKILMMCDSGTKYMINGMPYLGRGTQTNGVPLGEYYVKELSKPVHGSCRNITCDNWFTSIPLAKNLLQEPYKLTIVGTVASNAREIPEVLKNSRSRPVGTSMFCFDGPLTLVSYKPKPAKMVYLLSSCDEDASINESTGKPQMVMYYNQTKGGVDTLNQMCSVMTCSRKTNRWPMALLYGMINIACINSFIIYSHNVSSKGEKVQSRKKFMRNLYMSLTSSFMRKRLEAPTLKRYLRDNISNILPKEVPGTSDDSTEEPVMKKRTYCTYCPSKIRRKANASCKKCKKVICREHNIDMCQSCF
Put plainly: cell_activity; right only.

A further series addresses T3, PAH3 Left TAL-PBx (synthetic construct).
T3 chain: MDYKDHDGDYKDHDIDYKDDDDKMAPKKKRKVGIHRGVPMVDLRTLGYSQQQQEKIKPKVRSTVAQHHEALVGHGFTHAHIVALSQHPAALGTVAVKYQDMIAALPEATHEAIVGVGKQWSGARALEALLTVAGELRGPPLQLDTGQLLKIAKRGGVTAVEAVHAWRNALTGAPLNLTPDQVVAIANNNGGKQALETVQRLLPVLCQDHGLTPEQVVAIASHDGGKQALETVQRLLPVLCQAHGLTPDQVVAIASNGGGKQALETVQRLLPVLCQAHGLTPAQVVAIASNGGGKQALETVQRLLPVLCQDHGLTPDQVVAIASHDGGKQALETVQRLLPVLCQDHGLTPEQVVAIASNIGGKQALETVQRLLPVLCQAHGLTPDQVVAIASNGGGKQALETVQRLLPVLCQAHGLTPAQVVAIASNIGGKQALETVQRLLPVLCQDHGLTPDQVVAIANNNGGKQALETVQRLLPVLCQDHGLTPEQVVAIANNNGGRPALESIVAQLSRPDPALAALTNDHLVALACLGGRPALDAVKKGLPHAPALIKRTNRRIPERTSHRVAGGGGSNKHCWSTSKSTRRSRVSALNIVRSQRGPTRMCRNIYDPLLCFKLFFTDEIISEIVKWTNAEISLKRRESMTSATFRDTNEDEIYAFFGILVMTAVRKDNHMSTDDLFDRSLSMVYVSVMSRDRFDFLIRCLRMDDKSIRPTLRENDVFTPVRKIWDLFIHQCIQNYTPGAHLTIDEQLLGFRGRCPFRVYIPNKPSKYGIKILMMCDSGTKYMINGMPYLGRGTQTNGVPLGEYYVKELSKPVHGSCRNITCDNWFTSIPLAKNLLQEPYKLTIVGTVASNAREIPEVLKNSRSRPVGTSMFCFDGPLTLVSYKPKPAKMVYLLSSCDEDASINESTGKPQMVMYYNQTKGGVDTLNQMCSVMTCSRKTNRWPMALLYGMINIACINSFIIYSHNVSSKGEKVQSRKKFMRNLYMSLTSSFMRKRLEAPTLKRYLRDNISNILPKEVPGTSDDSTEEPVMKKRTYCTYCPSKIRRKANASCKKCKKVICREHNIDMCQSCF
Put plainly: cell_activity; left only.

A further series has as its target T4, PAH3 Right TAL-PBx (synthetic construct).
T4 chain: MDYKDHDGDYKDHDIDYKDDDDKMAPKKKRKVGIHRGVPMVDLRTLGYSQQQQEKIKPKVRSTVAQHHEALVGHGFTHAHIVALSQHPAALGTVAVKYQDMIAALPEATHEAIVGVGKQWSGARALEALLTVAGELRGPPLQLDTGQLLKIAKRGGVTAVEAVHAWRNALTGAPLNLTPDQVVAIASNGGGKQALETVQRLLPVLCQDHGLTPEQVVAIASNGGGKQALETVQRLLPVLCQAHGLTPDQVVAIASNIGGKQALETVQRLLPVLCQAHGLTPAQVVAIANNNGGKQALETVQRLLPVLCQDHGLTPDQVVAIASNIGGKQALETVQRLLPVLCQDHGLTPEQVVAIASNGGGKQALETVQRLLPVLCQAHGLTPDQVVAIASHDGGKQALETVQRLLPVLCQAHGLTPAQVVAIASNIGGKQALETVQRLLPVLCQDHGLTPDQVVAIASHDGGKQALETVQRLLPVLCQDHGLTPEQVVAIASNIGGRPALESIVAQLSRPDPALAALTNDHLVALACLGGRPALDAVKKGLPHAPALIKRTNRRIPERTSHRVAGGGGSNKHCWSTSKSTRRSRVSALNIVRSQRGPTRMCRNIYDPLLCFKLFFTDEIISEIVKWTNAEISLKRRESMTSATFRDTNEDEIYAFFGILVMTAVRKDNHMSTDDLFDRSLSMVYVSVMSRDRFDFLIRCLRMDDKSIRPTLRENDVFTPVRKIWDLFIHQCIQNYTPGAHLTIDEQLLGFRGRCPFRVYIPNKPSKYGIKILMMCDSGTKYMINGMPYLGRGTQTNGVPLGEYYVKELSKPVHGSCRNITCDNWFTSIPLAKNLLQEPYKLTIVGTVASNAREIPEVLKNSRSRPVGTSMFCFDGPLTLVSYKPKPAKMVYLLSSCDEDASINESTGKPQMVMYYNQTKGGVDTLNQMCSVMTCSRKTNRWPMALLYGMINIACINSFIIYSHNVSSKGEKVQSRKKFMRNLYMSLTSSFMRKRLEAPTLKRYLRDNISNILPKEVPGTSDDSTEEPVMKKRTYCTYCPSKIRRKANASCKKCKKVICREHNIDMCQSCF
Briefly: cell_activity; right only.

B1: PAH2 target (dsDNA)
DNA 1: TTCAGTTTGTTATATATGTGTCTATTAAGTTAGATTGTGAGCTCCTAAAAGA
DNA 2: TCTTTTAGGAGCTCACAATCTAACTTAATAGACACATATATAACAAACTGAA
In the case of B1, the activity was 8.8 % GFP+ in the series with PAH2 Left TAL-PBx and 7 % GFP+ with PAH2 Right TAL-PBx.

B2: PAH3 target (dsDNA)
DNA 1: TGCTTCATAGGGTAGTTCTAAAGATTAAATCACTTAATGCATGTGATCTAAA
DNA 2: TTTAGATCACATGCATTAAGTGATTTAATCTTTAGAACTACCCTATGAAGCA
With B2, the activity with PAH3 Left TAL-PBx is 6.8 % GFP+; in the series with PAH3 Right TAL-PBx it was 5.7 % GFP+.
